system: Escherichia coli TOP10; assay: shrunken log2 fold change of peptide-encoding DNA abundance (4.5 h post-induction vs induction); higher = less antimicrobial activity (less host growth inhibition); details: time post-induction: 4.5 h; library: site-saturation at positions 5, 18, 19, 20
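Note: peptides expressed intracellularly from a pBAD plasmid library in pooled LB shake-flask culture, induced with 0.3% L-arabinose, DNA abundance read by NGS, three biological replicates, DESeq2 with apeglm shrinkage.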

| Sequence | shrunken log2 fold change |
| --- | --- |
| RRIRKRPPRLPRPRPRPRKCPRP | 0.0121 |
| RRIRGRPPRLPRPRPRPAQSPRP | 0.723 |
| RRIRDRPPRLPRPRPRPYFFPRP | -0.287 |
| RRIRSRPPRLPRPRPRPWIPPRP | -0.119 |
| RRIRCRPPRLPRPRPRPQTHPRP | 0.0541 |
| RRIRNRPPRLPRPRPRPIHKPRP | -0.377 |
| RRIRHRPPRLPRPRPRPDNVPRP | -0.02 |
| RRIRSRPPRLPRPRPRPQVRPRP | 0.0563 |
| RRIRWRPPRLPRPRPRPPCGPRP | 0.255 |
| RRIRVRPPRLPRPRPRPKPCPRP | 0.205 |
| RRIRARPPRLPRPRPRPVSQPRP | 0.385 |
| RRIRFRPPRLPRPRPRPQWKPRP | -0.0239 |
| RRIRCRPPRLPRPRPRPIDFPRP | -0.458 |
| RRIRNRPPRLPRPRPRPMPIPRP | -0.0173 |
| RRIRTRPPRLPRPRPRPDSRPRP | -0.00822 |
| RRIRYRPPRLPRPRPRPLRYPRP | -0.426 |
| RRIRARPPRLPRPRPRPPGCPRP | 0.746 |
| RRIRLRPPRLPRPRPRPIIHPRP | -0.186 |
| RRIRNRPPRLPRPRPRPEHWPRP | -0.0343 |
| RRIRIRPPRLPRPRPRPYAIPRP | -0.0122 |
| RRIRFRPPRLPRPRPRPANWPRP | 0.166 |
| RRIRVRPPRLPRPRPRPNDPPRP | -0.0659 |
| RRIRGRPPRLPRPRPRPGADPRP | 1.48 |
| RRIRRRPPRLPRPRPRPHNEPRP | -0.0783 |
| RRIRTRPPRLPRPRPRPPIKPRP | -0.368 |

| Sequence | shrunken log2 fold change |
| --- | --- |
| RRIRVRPPRLPRPRPRPCMYPRP | -0.387 |
| RRIRQRPPRLPRPRPRPQWSPRP | 0.282 |
| RRIRFRPPRLPRPRPRPRNSPRP | 0.168 |
| RRIRKRPPRLPRPRPRPQCIPRP | -0.149 |
| RRIRDRPPRLPRPRPRPARHPRP | 0.368 |
| RRIRGRPPRLPRPRPRPHFHPRP | 0.603 |
| RRIRSRPPRLPRPRPRPWYAPRP | -0.253 |
| RRIRARPPRLPRPRPRPAWWPRP | 0.895 |
| RRIRSRPPRLPRPRPRPDCFPRP | 0.103 |
| RRIRPRPPRLPRPRPRPHLFPRP | -0.0473 |
| RRIRFRPPRLPRPRPRPQVKPRP | -0.279 |
| RRIRNRPPRLPRPRPRPSLWPRP | 0.159 |
| RRIRSRPPRLPRPRPRPKCTPRP | -0.0418 |
| RRIRYRPPRLPRPRPRPYDPPRP | -0.325 |
| RRIRPRPPRLPRPRPRPCELPRP | -0.17 |
| RRIRSRPPRLPRPRPRPKAPPRP | 0.184 |
| RRIRFRPPRLPRPRPRPHNEPRP | -0.626 |
| RRIRFRPPRLPRPRPRPVTSPRP | -0.0369 |
| RRIRPRPPRLPRPRPRPSERPRP | -0.0297 |
| RRIRQRPPRLPRPRPRPWVDPRP | 0.0234 |
| RRIRARPPRLPRPRPRPWMYPRP | -0.794 |
| RRIRNRPPRLPRPRPRPPANPRP | 0.262 |
| RRIRIRPPRLPRPRPRPLNRPRP | -0.476 |
| RRIRPRPPRLPRPRPRPEQWPRP | 0.0326 |
| RRIRYRPPRLPRPRPRPFCTPRP | -0.425 |

| Sequence | shrunken log2 fold change |
| --- | --- |
| RRIRHRPPRLPRPRPRPDNIPRP | -0.207 |
| RRIRYRPPRLPRPRPRPYSFPRP | -0.106 |
| RRIRIRPPRLPRPRPRPECTPRP | -0.0501 |
| RRIRYRPPRLPRPRPRPFCKPRP | -1.59 |
| RRIRPRPPRLPRPRPRPENIPRP | -0.102 |
| RRIRPRPPRLPRPRPRPSCDPRP | -0.273 |
| RRIRNRPPRLPRPRPRPLSLPRP | -0.291 |
| RRIRRRPPRLPRPRPRPQANPRP | 0.118 |
| RRIRGRPPRLPRPRPRPPVTPRP | 0.728 |
| RRIRNRPPRLPRPRPRPNYIPRP | -0.318 |
| RRIRDRPPRLPRPRPRPPDMPRP | 0.123 |
| RRIRGRPPRLPRPRPRPVRHPRP | 0.496 |
| RRIRDRPPRLPRPRPRPCDMPRP | -0.0013 |
| RRIRPRPPRLPRPRPRPAGTPRP | -0.07 |
| RRIRCRPPRLPRPRPRPTYCPRP | -0.279 |
| RRIRCRPPRLPRPRPRPFMTPRP | -0.737 |
| RRIRRRPPRLPRPRPRPVHLPRP | -0.022 |
| RRIRWRPPRLPRPRPRPSCRPRP | 0.0511 |
| RRIRHRPPRLPRPRPRPSGEPRP | -0.03 |
| RRIRCRPPRLPRPRPRPYQSPRP | -0.307 |
| RRIRARPPRLPRPRPRPKHCPRP | 0.0395 |
| RRIRWRPPRLPRPRPRPTDWPRP | 0.581 |
| RRIRERPPRLPRPRPRPMETPRP | 0.015 |
| RRIRYRPPRLPRPRPRPKHAPRP | -0.0577 |
| RRIRARPPRLPRPRPRPRMIPRP | 0.219 |

| Sequence | shrunken log2 fold change |
| --- | --- |
| RRIRHRPPRLPRPRPRPTSFPRP | 0.0399 |
| RRIRVRPPRLPRPRPRPILSPRP | -0.134 |
| RRIRRRPPRLPRPRPRPKMPPRP | 0.191 |
| RRIRLRPPRLPRPRPRPFIGPRP | -0.305 |
| RRIRVRPPRLPRPRPRPWHKPRP | -0.127 |
| RRIRARPPRLPRPRPRPLNIPRP | 0.0473 |
| RRIRVRPPRLPRPRPRPTLRPRP | 0.102 |
| RRIRARPPRLPRPRPRPAEPPRP | 0.443 |
| RRIRPRPPRLPRPRPRPPGNPRP | 0.105 |
| RRIRIRPPRLPRPRPRPKFDPRP | -0.18 |
| RRIRFRPPRLPRPRPRPSSDPRP | -0.286 |
| RRIRHRPPRLPRPRPRPRCVPRP | 0.548 |
| RRIRDRPPRLPRPRPRPYATPRP | 0.0348 |
| RRIRPRPPRLPRPRPRPRRHPRP | 0.241 |
| RRIRCRPPRLPRPRPRPHKLPRP | -0.436 |
| RRIRIRPPRLPRPRPRPNFHPRP | -0.52 |
| RRIRYRPPRLPRPRPRPPMQPRP | -0.0424 |
| RRIRARPPRLPRPRPRPIDHPRP | -0.00706 |
| RRIRIRPPRLPRPRPRPYLFPRP | -0.376 |
| RRIRMRPPRLPRPRPRPMDTPRP | -0.00187 |
| RRIRSRPPRLPRPRPRPECRPRP | 0.266 |
| RRIRDRPPRLPRPRPRPGFPPRP | 0.0346 |
| RRIRGRPPRLPRPRPRPGGDPRP | 0.937 |
| RRIRSRPPRLPRPRPRPYYRPRP | -0.0115 |
| RRIRARPPRLPRPRPRPHPSPRP | 0.327 |

| Sequence | shrunken log2 fold change |
| --- | --- |
| RRIRNRPPRLPRPRPRPWREPRP | 0.262 |
| RRIRYRPPRLPRPRPRPDITPRP | -0.385 |
| RRIRHRPPRLPRPRPRPCAMPRP | -0.257 |
| RRIRNRPPRLPRPRPRPWGGPRP | -0.113 |
| RRIRSRPPRLPRPRPRPHTKPRP | 0.0141 |
| RRIRARPPRLPRPRPRPEIMPRP | 0.43 |
| RRIRMRPPRLPRPRPRPYIDPRP | -0.227 |
| RRIRNRPPRLPRPRPRPPYIPRP | -0.335 |
| RRIRNRPPRLPRPRPRPLAVPRP | 0.0686 |
| RRIRFRPPRLPRPRPRPWWIPRP | -0.681 |
| RRIRARPPRLPRPRPRPPHYPRP | 0.857 |
| RRIRWRPPRLPRPRPRPAWRPRP | 0.642 |
| RRIRIRPPRLPRPRPRPSVIPRP | -0.661 |
| RRIRHRPPRLPRPRPRPKMYPRP | -0.289 |
| RRIRYRPPRLPRPRPRPPDFPRP | -0.136 |
| RRIRARPPRLPRPRPRPSHQPRP | -0.138 |
| RRIRFRPPRLPRPRPRPHPDPRP | -0.262 |
| RRIRLRPPRLPRPRPRPDYCPRP | 0.0561 |
| RRIRQRPPRLPRPRPRPLQEPRP | -0.129 |
| RRIRPRPPRLPRPRPRPPGAPRP | 0.806 |
| RRIRVRPPRLPRPRPRPWETPRP | 0.0394 |
| RRIRCRPPRLPRPRPRPDKYPRP | -0.717 |
| RRIRSRPPRLPRPRPRPTFVPRP | -0.15 |
| RRIRMRPPRLPRPRPRPLAWPRP | 0.219 |
| RRIRPRPPRLPRPRPRPMARPRP | 0.154 |

| Sequence | shrunken log2 fold change |
| --- | --- |
| RRIRNRPPRLPRPRPRPHHIPRP | -0.282 |
| RRIRERPPRLPRPRPRPNNNPRP | -0.977 |
| RRIRARPPRLPRPRPRPIDAPRP | 0.0272 |
| RRIRYRPPRLPRPRPRPSDIPRP | -0.0657 |
| RRIRTRPPRLPRPRPRPWDWPRP | 0.00763 |
| RRIRFRPPRLPRPRPRPWINPRP | -0.0461 |
| RRIRFRPPRLPRPRPRPMFKPRP | -0.581 |
| RRIRIRPPRLPRPRPRPTWHPRP | -0.242 |
| RRIRHRPPRLPRPRPRPWHNPRP | -0.261 |
| RRIRWRPPRLPRPRPRPQRDPRP | -0.0245 |
| RRIRPRPPRLPRPRPRPVVKPRP | -0.181 |
| RRIRHRPPRLPRPRPRPMCKPRP | -0.151 |
| RRIRWRPPRLPRPRPRPMCVPRP | 0.0501 |
| RRIRHRPPRLPRPRPRPCYGPRP | -0.238 |
| RRIRHRPPRLPRPRPRPHQCPRP | 1.73 |
| RRIRYRPPRLPRPRPRPLNWPRP | -0.594 |
| RRIRHRPPRLPRPRPRPICEPRP | -0.369 |
| RRIRLRPPRLPRPRPRPHVPPRP | 0.0978 |
| RRIRSRPPRLPRPRPRPTKFPRP | 0.0549 |
| RRIRFRPPRLPRPRPRPLFIPRP | -0.652 |
| RRIRRRPPRLPRPRPRPVPAPRP | 1.06 |
| RRIRHRPPRLPRPRPRPASMPRP | 0.0822 |
| RRIRCRPPRLPRPRPRPKWCPRP | -0.105 |
| RRIRERPPRLPRPRPRPLAMPRP | -0.246 |
| RRIRDRPPRLPRPRPRPHDWPRP | 0.807 |

From the supplement of paper PMC9112550, “Optimization of the antimicrobial peptide Bac7 by deep mutational scanning” (BMC Biology, 2022)
